Where “and” joins values, the source holds several entries; their conditions need not be identical. Equal values may be shown once.
Legend:
[1] = parameters: method as in 4 sources, ref 50, 59 = [50]; PMID 12697897; doi:10.1073/pnas.0931245100; 50. Smith R.A.J. Porteous C.M. Gane A.M. Murphy M.P. Delivery of bioactive molecules to mitochondria in vivo Proc. Natl. Acad. Sci. USA 2003 100 5407 5412 10.1073/pnas.0931245100 12697897 PMC154358 || [59]; PMID 23454352; doi:10.1016/j.bbagen.2013.02.005; 59. Porteous C.M. Menon D.K. Aigbirhio F.I. Smith R.A. Murphy M.P. P-glycoprotein (Mdr1a/1b) and breast cancer resistance protein (Bcrp) decrease the uptake of hydrophobic alkyl triphenylphosphonium c ||| ref 59 = [59]; PMID 23454352; doi:10.1016/j.bbagen.2013.02.005; 59. Porteous C.M. Menon D.K. Aigbirhio F.I. Smith R.A. Murphy M.P. P-glycoprotein (Mdr1a/1b) and breast cancer resistance protein (Bcrp) decrease the uptake of hydrophobic alkyl triphenylphosphonium c ||| ref 50 = [50]; PMID 12697897; doi:10.1073/pnas.0931245100; 50. Smith R.A.J. Porteous C.M. Gane A.M. Murphy M.P. Delivery of bioactive molecules to mitochondria in vivo Proc. Natl. Acad. Sci. USA 2003 100 5407 5412 10.1073/pnas.0931245100 12697897 PMC154358 ||| ref 60 = [60]; PMID 31751762; doi:10.1016/j.freeradbiomed.2019.11.021; 60. Pinho B.R. Duarte A.I. Canas P.M. Moreira P.I. Murphy M.P. Oliveira J.M.A. The interplay between redox signalling and proteostasis in neurodegeneration: In vivo effects of a mitochondria-targeted; conditions: cited from earlier work
Text: TPP-driven mitochondriotropic compounds are not necessarily excluded from the brain [47, 48, 49, 50]. The literature contains several reports of the use of mitochondria-targeted probes to report on cerebral processes or of mitochondria-tar ...

[2] = Tissue distribution of An2-PAPTP and metabolites (liver, spleen, kidneys, heart) after i.v. injection; assay type: in vivo, mouse; conditions: for metabolite in liver, 15 min: n = 5; for metabolite in heart, 15 min / metabolite in spleen, 15 min: N = 5; for metabolite in kidneys, 15 min, single animal: found in one animal out of five; for metabolite in liver, 30 min: n = 4; for metabolite in liver, 60 min: n = 6
Text: The total amount of An2-PAPTP and its metabolites, summarized in Table 3, is comprehensive of all the species having the characteristic psoralenic UV spectrum obtained by the overall extraction procedure (i.e., from organic solvent extraction and basic hydrolysis of the remaining pellet), and represents and underestimation of the real concentration in the tissue (see Section 4.7.3). This is because no recovery yield correction was applied, since it was impossible to identify most of the species extracted, and because PAPTPL extracted after high-pH hydrolysis of the pellet could come either from An2-PAPTP or from metabolites. For quantification in HPLC analysis, all the psoralenic species were assumed to have the same molar extinction coefficient as PAPTPL, an assumption justified by the near-identity observed for all the available psoralen-containing molecules.
The liver, spleen, kidneys, heart obtained from untreated mice were weighed and homogenized with PBS pH 7.4 (1 vol) with a potter. The pre-established amount of PAPTPL was added into tissue homogenates or blood and, after thorough vortexing, 5 vol of acetone were added and the sample was sonicated for 2 min. Subsequently, 5 vol of ACN containing 0.1% TFA were added and the sample was sonicated for 5 min. The sample was then centrifuged at 12,000× g for 7 min at 4 °C and the supernatant was collected, concentrated with a Hetovac VR-1, and analyzed via HPLC-UV.
Brain and liver obtained from untreated mice were weighed and homogenized with PBS pH 7.4 (1 vol) with a potter. The pre-established amount of analyte was added into tissue homogenates and, after thorough vortexing, 5 vol of acetone were added and the sample was sonicated for 2 min. Subsequently, 5 vol of ACN containing 0.1% trifluoracetic acid (TFA) were added and the sample was sonicated for 5 min. The sample was then centrifuged at 12,000× g for 7 min at 4 °C and the supernatant was collected, concentrated with a Hetovac VR-1, and analyzed via HPLC-UV.
To quantify the amount of An2-PAPTP stuck in the tissue, the pellet remaining after the procedure described above was incubated with intermittent Vortexing at 60 °C for 3 h with PBS pH 12.5/ACN 1:1 and then centrifuged at 12,000× g for 7 min. HPLC-UV analysis of the supernatant, measuring PAPTPL hydrolyzed from the tissue, thus indirectly reflects the amount of An2-PAPTPL in the pellet (Scheme 3). Quantification was as described for PAPTPL.
A stock solution of the peptide-PAPTP conjugates was prepared in DMSO. TAT-PAPTP was administered at 8 and 5 μmol/kg bw and An2-PAPTP only at 5 μmol/kg bw. The calculated quantity of drugs was diluted from the stock solution in saline or mouse plasma to a final volume of 200 μL.

[3] = fresh mouse blood, withdrawn from the jugular vein and heparinized; conditions: C57BL mice, 37 °C, up to 4 h
[4] = after An2-PAPTP 5 µmoles/kg bw i.v., mean ± SEM
[5] = after An2-PAPTP 5 µmoles/kg bw i.v., liver, mean ± SEM
[6] = after An2-PAPTP i.v., mean ± SEM
[7] = after An2-PAPTP i.v., kidneys, found in one animal out of four
[8] = after An2-PAPTP 5 µmoles/kg bw i.v., liver, 30 min, mean ± SEM
[9] = after An2-PAPTP i.v., mean ± SEM, N = 4
[10] = after An2-PAPTP i.v., mean ± SEM, N = 6

Molecule | metabolite in heart, 15 min [2, 4] [nmol/g fresh tissue] | metabolite in liver, 15 min [2, 5] [% administered dose] | metabolite in heart, 15 min [2, 6] [% administered dose] | metabolite in kidneys, 15 min, single animal ([2]; after An2-PAPTP i.v., kidneys) | metabolite in kidneys, 30 min, single animal [2, 7] | metabolite in spleen, 15 min [2, 6] [% administered dose] | metabolite in liver, 30 min [2, 8] [% administered dose] | metabolite in liver, 60 min [2, 5] [% administered dose] | metabolite in heart, 30 min [2, 9] [% administered dose] | metabolite in spleen, 30 min [2, 9] [% administered dose] | metabolite in spleen, 60 min [2, 10] [% administered dose] | further results
COC1=C(OC)C(=O)C(CCCCCCCCCC[P+](c2ccccc2)(c2ccccc2)c2ccccc2)=C(C)C1=O [MitoQ] | – | – | – | – | – | – | – | – | – | – | – | amount in the brain, R6/2 mice ([1]; 500 µM MitoQ in drinking water for 6 weeks, R6/2 mice): ~5 pmol/g; amount in the brain, WT mice ([1]; 500 µM MitoQ in drinking water for 6 weeks, WT mice): about 1 pmol/g; steady-state brain radioactivity levels ([1]; 10-day administration of 500 µM in drinking water): ~0.15 nmol/gr fresh tissue; initial peak concentration in brain tissue ([1]; i.v. injection of 100 nmol radiolabelled compound in (WT) mice, scintillation counting): about 0.05 nmol/gr; Area Under Curve in brain ([1]; i.v., wild-type mice): 0.6 nmol·h/g wet weight
CCC(C)C(NC(=O)Oc1ccc(CCCOc2ccc([P+](CCCc3ccc(OCCCCOc4c5ccoc5cc5oc(=O)ccc45)cc3)(c3ccccc3)c3ccccc3)cc2)cc1)C(=O)O.O=C([O-])C(F)(F)F (stereo not drawn) [PAPTPL-I, (4-(3-(4-(((1-carboxy-2-methylbutyl)carbamoyl)oxy)phenyl)propoxy)phenyl) (3-(4-(4-((7-oxo-7H-furo[3,2-g]chromen-4-yl)oxy)butoxy)phenyl)propyl)diphenylphosphonium 2,2,2-trifluoroacetate] | 0 | 0.4 ± 0.2 | 0 | 0.32 nmol/g fresh tissue and 0.02 % administered dose | 0.32 nmol/g fresh tissue and 0.03 % administered dose | 0.04 ± 0.02 | – | – | – | – | – | metabolite in liver, 15 min ([2]; after An2-PAPTP 5 µmoles/kg bw i.v. in mouse plasma, liver, HPLC-UV, mean ± SEM): 0.5 ± 0.3 nmol/g fresh tissue; metabolite in spleen, 15 min [2, 4]: 0.7 ± 0.3 nmol/g fresh tissue; metabolite in liver, 30 min, single animal ([2]; after An2-PAPTP i.v., liver, 30 min, found in one animal out of four): 0.2 nmol/g fresh tissue and 0.03 % administered dose
CC[C@H](C)[C@H](NC(=O)Oc1ccc(CCCOc2ccc([P+](CCCc3ccc(OCCCCOc4c5ccoc5cc5oc(=O)ccc45)cc3)(c3ccccc3)c3ccccc3)cc2)cc1)C(=O)N[C@H](C(=O)O)[C@@H](C)O [PAPTPL-IT, PAPTPL-isoleucine- threonine] | 0 | 2.8 ± 1.0 | 0 | 0.04 % administered dose | 0.05 % administered dose | 0.10 ± 0.04 | 2.7 ± 1.8 | 6.2 ± 1.6 | 0.01 ± 0.01 | 0.07 ± 0.04 | 0.07 ± 0.03 | metabolite in kidneys, 60 min, single animal ([2]; after An2-PAPTP i.v., kidneys, found in one animal out of six): 0.006 % administered dose
CC[C@H](C)[C@H](NC(=O)Oc1ccc(CCCOc2ccc([P+](CCCc3ccc(OCCCCOc4c5ccoc5cc5oc(=O)ccc45)cc3)(c3ccccc3)c3ccccc3)cc2)cc1)C(=O)N[C@H](C(=O)N[C@@H](Cc1ccccc1)C(=O)O)[C@@H](C)O [PAPTPL-ITF, PAPTPL-isoleucine-threonine-phenylalanine] | 0 | 1.7 ± 1.0 | 0 | 0.01 % administered dose | – | 0.13 ± 0.08 | 1.2 ± 0.5 | 3.9 ± 1.0 | 0.008 ± 0.007 | 0.02 ± 0.01 | 0.08 ± 0.01 | metabolite in kidneys, 30 min ([2]; after An2-PAPTP i.v., kidneys, mean ± SEM, N = 4): 0.12 ± 0.08 % administered dose; metabolite in kidneys, 60 min ([2]; after An2-PAPTP i.v., kidneys, mean ± SEM, N = 6): 0.02 ± 0.01 % administered dose
HN-IGRKKRRQRRRPPQG-OH | – | – | – | – | – | – | – | – | – | – | – | cleaved bond [3]: hydrolysis of the carbamate bond connecting the peptide and PAPTPL
